The target in experiment [1] is T1, Fusion protein of extracellular domain of human TIGIT and human IgG1 Fc fragment (human TIGIT ECD-hFc) (human).
T1 construct: The entry includes the signal peptide (limits not recoverable) and the human IgG1 Fc
As to the kind of experiment: blocking of TIGIT ECD-hFc binding to CHO-K1 CD155 cells. In a few lines:
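The inhibition curves from which IC50 was calculated were generated by cell-based ELISA. Fixed CHO-K1 CD155 cells, blocked with 5% skim milk-PBS, were incubated at 37° C for 1.5-2 h with antibodies that had been premixed for 0.5 h with human TIGIT ECD-hFc at a working concentration of 30 ng/mL. Detection of bound TIGIT used HRP secondary antibody at 1:5000 for 1 h at 37° C, followed by TMB and reading as OD450 nm.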

Experiment [2] deals with T2, Full-length human TIGIT on CHO-K1 cells (CHO-K1 human TIGIT) (human, UniProt Q495A1 22-244).
T2 construct: NCBI XP_024309156.1; the entry includes the signal peptide (limits not recoverable); The strain (high, medium, low) is named under assay; also called high expression strain 1D2; medium expression strain 2D10
T2 sequence: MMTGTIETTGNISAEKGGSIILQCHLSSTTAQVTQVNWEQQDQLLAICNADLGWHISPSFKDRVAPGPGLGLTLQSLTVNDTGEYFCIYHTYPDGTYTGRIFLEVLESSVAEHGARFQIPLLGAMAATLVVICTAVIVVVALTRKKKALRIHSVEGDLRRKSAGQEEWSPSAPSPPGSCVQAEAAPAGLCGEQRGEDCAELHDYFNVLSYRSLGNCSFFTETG
As to the kind of experiment: FACS; blocking of Bio-CD155-His binding to CHO-K1 human TIGIT cells. In short, it runs like this:
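IC50 values in this blocking assay come from inhibition curves. CHO-K1 human TIGIT cells (2×10⁵/40 μL in 1% BSA-PBS) were combined with equal volumes of antibody, a 12-point 3-fold dilution series starting at 210 nM, and biotinylated CD155-His, diluted to 3 μg/mL, for 60 min at 4° C. Ligand binding was detected with APC-streptavidin (1:1700, 40 min, 4° C) and read by flow cytometry on a BD Canto II.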

T1 sequence (chain, as listed by the source limits assumed): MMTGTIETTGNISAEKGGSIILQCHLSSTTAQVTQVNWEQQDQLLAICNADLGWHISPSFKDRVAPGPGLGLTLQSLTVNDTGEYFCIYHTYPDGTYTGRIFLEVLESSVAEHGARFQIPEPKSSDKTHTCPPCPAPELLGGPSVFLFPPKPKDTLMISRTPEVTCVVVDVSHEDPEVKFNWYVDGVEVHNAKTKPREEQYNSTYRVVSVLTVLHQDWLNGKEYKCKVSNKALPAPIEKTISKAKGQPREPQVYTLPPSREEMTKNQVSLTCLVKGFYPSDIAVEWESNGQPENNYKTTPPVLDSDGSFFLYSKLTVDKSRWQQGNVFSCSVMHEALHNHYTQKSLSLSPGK

B1: TIGIT-070-H1L1 (antibody, V domains shown)
VH: EVQLVQSGAEVKKPGASVKVSCKASGYTFTNYYMHWVRQAPGQRLEWMGRIDPDSGGSKYNEKFKSRVTITVDKSASTAYMELSSLRSEDTAVYYCAREGHYGFYSDYWGQGTTVTVSS
VL: DIQMTQSPSSLSASVGDRVTITCRVSENIYSYLAWYQQKPGKSPKLLIYNAKTLAEGVPSRFSGSGSGTDFTLTISSLQPEDFATYYCQHHYGNPLTFGPGTKVDIK
notes: Humanized anti-TIGIT antibody
For orientation: IC50 means the point on the concentration scale where inhibition reaches its midpoint. A low value points to greater potency in that assay. As for B1, the IC50 was found to be 502 pM in experiment [1] and 212 pM in experiment [2].

B2: TIGIT-006-H5L3 (antibody, V domains shown)
VH: EVQLQESGPGLVKPSETLSLTCAVSGYSMTSDYWNWIRQPPGKKLEYIGYISYSGRTYYNPSLKSRVTISRDTSKNQFSLKLSSVTAADTAVYYCARGDYSNYGGAMYDWGQGTTVTVSS
VL: DIVMTQSPDSLAVSLGERATINCRASQGVSTTIAWYQQKPGQSPKLLIYSASYRYTGVPRFSGSGSGTDFTLTISSLQAEDVAVYYCQQYYSSPFTFGGGTKVEIK
notes: Humanized anti-TIGIT antibody
Consider B2, for which the IC50 amounted to 587 pM in experiment [1] and 171 pM in experiment [2].

The values are drawn from patent US20240343803A1 (SHANDONG SIMCERE BIOPHARMACEUTICAL, published 2024).
